Data from patent US20180259527.

Biological target: T1, recombinant proclotting enzyme of Japanese horseshoe crab (His-tag free)
T1 chain: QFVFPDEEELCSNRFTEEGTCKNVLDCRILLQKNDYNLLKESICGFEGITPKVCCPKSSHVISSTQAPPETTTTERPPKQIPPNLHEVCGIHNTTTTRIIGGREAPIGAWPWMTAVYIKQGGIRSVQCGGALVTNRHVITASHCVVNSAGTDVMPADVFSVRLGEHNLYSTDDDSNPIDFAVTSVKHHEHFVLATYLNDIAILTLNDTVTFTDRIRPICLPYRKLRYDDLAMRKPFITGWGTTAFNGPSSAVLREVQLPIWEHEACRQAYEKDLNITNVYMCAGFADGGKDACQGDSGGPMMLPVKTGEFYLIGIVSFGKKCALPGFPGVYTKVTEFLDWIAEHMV

B1: His-tag-attached factor C (factor C of Japanese horseshoe crab of SEQ ID NO:2 with a 6xHis-tag at the C-terminus) (protein)
chain: RGVDLGLCDETRFECKCGDPGYVFNVPMKQCTYFYRWRPYCKPCDDLEAKDICPKYKRCQECKAGLDSCVTCPPNKYGTWCSGECQCKNGGICDQRTGACTCRDRYEGAHCEILKGCPLLPSDSQVQEVRNPPDNPQTIDYSCSPGFKLKGVARISCLPNGQWSSFPPKCIRECAKVSSPEHGKVNAPSGNMIEGATLRFSCDSPYYLIGQETLTCQGNGQWSGQIPQCKKLVFCPDLDPVNHAEHQVKIGVEQKYGQFPQGTEVTYTCSGNYFLMGFNTLKCNPDGSWSGSQPSCVKVADREVDCDSKAVDFLDDVGEPVRIHCPAGCSLTAGTVWGTAIYHELSSVCRAAIHAGKLPNSGGAVHVVNNGPYSDFLGSDLNGIKSEELKSLARSFRFDYVSSSTAGRSGCPDGWFEVEENCVYVTSKQRAWERAQGVCTNMAARLAVLDKDLIPSSLTETLRGKGLTTTWIGLHRLDAEKPFVWELMDRSNVVLNDNLTFWASGEPGNETNCVYLDIRDQLQPVWKTKSCFQPSSFACMMDLSDRNKAKCDDPGPLENGHATLHGQSIDGFYAGSSIRYSCEVLHYLSGTETVTCTTNGTWSAPKPRCIKVITCQNPPVPSYGSVEIKPPSRTNSISRVGSPFLRLPRLPLPLARAAKPPPKPRSSQPSTVDLASKVKLPEGHYRVGSRAIYTCESRYYELLGSQGRRCDSNGNWSGRPASCIPVCGRSDSPRSPFIWNGNSTEIGQWPWQAGISRWLADHNMWFLQCGGSLLNEKWIVTAAHCVTYSATAEIIDPSQFKIYLGKYYRDDSRDDDYVQVREALEIHVNPNYDPGNLNFDIALIQLKTPVTLTTRVQPICLPTDITTREHLKEGTLAVVTGWGLNENNTYSEMIQQAVLPVVAASTCEEGYKEADLPLTVTENMFCAGYKKGRYDACSGDSGGPLVFADDSRTERRWVLEGIVSWGSPSGCGKANQYGGFTKVNVFLSWIRQFIHHHHHH
- rate of increase in the absorbance at 405 nm (absorbance change rate), proclotting enzyme-activating capacity: activation of the proclotting enzyme was not observed or hardly observed in the His-tag-attached factor C solution containing the equal amount of factor C (0.7 µL), and even in the solution containing about 7 times the amount of factor C (5 µL)

B2: His-tag-free recombinant factor C of Japanese horseshoe crab Tachypleus tridentatus (protein)
chain: RGVDLGLCDETRFECKCGDPGYVFNVPMKQCTYFYRWRPYCKPCDDLEAKDICPKYKRCQECKAGLDSCVTCPPNKYGTWCSGECQCKNGGICDQRTGACTCRDRYEGAHCEILKGCPLLPSDSQVQEVRNPPDNPQTIDYSCSPGFKLKGVARISCLPNGQWSSFPPKCIRECAKVSSPEHGKVNAPSGNMIEGATLRFSCDSPYYLIGQETLTCQGNGQWSGQIPQCKKLVFCPDLDPVNHAEHQVKIGVEQKYGQFPQGTEVTYTCSGNYFLMGFNTLKCNPDGSWSGSQPSCVKVADREVDCDSKAVDFLDDVGEPVRIHCPAGCSLTAGTVWGTAIYHELSSVCRAAIHAGKLPNSGGAVHVVNNGPYSDFLGSDLNGIKSEELKSLARSFRFDYVSSSTAGRSGCPDGWFEVEENCVYVTSKQRAWERAQGVCTNMAARLAVLDKDLIPSSLTETLRGKGLTTTWIGLHRLDAEKPFVWELMDRSNVVLNDNLTFWASGEPGNETNCVYLDIRDQLQPVWKTKSCFQPSSFACMMDLSDRNKAKCDDPGPLENGHATLHGQSIDGFYAGSSIRYSCEVLHYLSGTETVTCTTNGTWSAPKPRCIKVITCQNPPVPSYGSVEIKPPSRTNSISRVGSPFLRLPRLPLPLARAAKPPPKPRSSQPSTVDLASKVKLPEGHYRVGSRAIYTCESRYYELLGSQGRRCDSNGNWSGRPASCIPVCGRSDSPRSPFIWNGNSTEIGQWPWQAGISRWLADHNMWFLQCGGSLLNEKWIVTAAHCVTYSATAEIIDPSQFKIYLGKYYRDDSRDDDYVQVREALEIHVNPNYDPGNLNFDIALIQLKTPVTLTTRVQPICLPTDITTREHLKEGTLAVVTGWGLNENNTYSEMIQQAVLPVVAASTCEEGYKEADLPLTVTENMFCAGYKKGRYDACSGDSGGPLVFADDSRTERRWVLEGIVSWGSPSGCGKANQYGGFTKVNVFLSWIRQFI
- rate of increase in the absorbance at 405 nm (absorbance change rate), proclotting enzyme-activating capacity: the His-tag-free factor C showed a remarkable proclotting enzyme-activating capacity irrespective of whether it was obtained by the viral method or by the stably expressing cell line method
